# Results taken from the DeepSol protein solubility set.
# Test: soluble on expression in E. coli; label from the status in PepcDB or PDB records
row,Sequence,soluble on expression in E. coli
1,MKSFILGPLGLLVAICCLYQPADAALAAMSIDLGSQFIKIGLVKPGVPMDIVLNKESRRKTPNVISFKNDERFFAEAAAAMSSSHPQSSYNFLLSMIARKEGDDAFVTFQKTFPFTAFEFDEVRKTVVFPYKEEKYNVETLLAMILWNAKKVTEAYADQTVKDVVITVPIFLNQAERRAIASAAEIAGLNLLQLLNDGSAAALNYGVFRRKEITEKPTHMLIYDMGAVKTTATIVQYVLESTRKDGKDKQPTLRTVGVGFDKTLGGLEITNRLRDHLEKVFRDTVKTSKDISTNARAIGKLHKEAERVKQVLSANKDTYAQVESLFEEQNFRAKVTREELEKMIEDLEPRIAAPILDAIGMAQISTNDIDLVVLMGAGTRVPKVKEILKTILKDKEISNFLNTDEAIAMGAVYQAAHLSKSFKVLPFNVHEKILYPVFVNFLTKTEEGTMKPIRKSLFGENYPVPNRVMHFSSYSDDFKIDIQDADKNPLSTVEISGVKDAIEKEVTDENSVLKGVKTTFSIDLSGIVSVEKASVVVEKVPTPEEKDKYEVDKKEFDEWEKEQEELKKKEKAEKKEKEEKKKTEGEEEKNEDAAGEEKTEEKTEEVEKPVVVKKTKPVEPKAKKINVALTIKETKTDNIDLNEEEVTAAKKVLGDFEQKEKEKHDREEAMNRLEGLLYDLAVRLEDGEEYAEYATEEEKKAILEEVAVLKLWFEDDVSLETKKEEFDEKRAKLEELTAKPNARKQERLDIPKVAEIIEDHFNRSMTFHAMALNLTQFEEGNKTFTDTELEVLTKLIESTTEWWNEKKDLFEKQAKNEDPVVKASEIAEKARDLEREVRYLVNKLKIASSKKSKESEKKKKTKKEKDTVKERKEEETTETTTEDQANEQQTPPPFENDNTKDDESASTEEPKKDTEHDASEL,not soluble
2,DLGTQFLKIGIVKPGIPMDIALNTESRRKTPNVVMIQDGHRTFADAAIGMQVRYPHLVHGQLNDLVGKSTQHPSFELFKRRNTFFEVDDAPKNASSINFKLGGESYTVEALTAMILANAKKFTEEYAQAAEIKDVVITVPVYFTPAERLAVERAAQMAGLTVLQLINDGTAAALSHGIFRRKEIGEKPQRLMVYDMGAAKTTATIVEFKLVKEKYEKQPKMTVLGVGFDRTLGGIEMTNRLRDHLIEMFEKNYKPKTKVNTNRRAMTKFSKEAERLKQVLSANAEHFAQIESAHEDIDAKLKVTREDFNHLISDMESRFGEPIEQALRMAQIPIDDIDQFVLMGAGTRVPKVQEIVQKTIGTKEIGKFLNTDEAVAMGALFQAAHLSKGFKVKPFNIEEKVIFPVEVHFVSKIRDEKTEEITGEKNVVKTLFAANSVYPTHPKTISLTSYSDDFSVALKYGKIESFTKQQVQEIGSLLDNLVDVEISGLSEALKNRSSEESEFKGVKVSFIVDASGIVRVRRAEALFEPKSGLVGSIASTISGLFSSKTEEGEPTTDDSTPQSTEEKTEEKESVKVEDSTPEPEPETPVNSTSEESPKTNETEKNASSGNATEVKEKKKELPSIVRLRITNKYPSAFVPNKYDVQEEKRRMEAFAEKERLASERAAVENELESFNFECSQYLEETEFTDYMADEEKTKLEDSVKRIRAWLEDDVTKDTPTKDFTDNLLELKNVVRSVKKRQEHDKAVPEKLKSLETLLETTFSLTTLGNNVDEEKALFKKEDRDGLKSKLDKLKIWVTDVRKHLDLKKKTDDFNFTGKDIDTKTKNLNREVDRFMKKMKKITTLDDLAKDGKIDIDTIVEEAEKKKAEQDKKKEKKSTKKANESKVENESEIKTEL,not soluble
3,MHSMKLLVTGGMGFIGSNFIRYILEKHPDWEVINIDKLGYGSNPANLKDLEDDPRYTFVKGDVADYELVKELVRKVDGVVHLAAESHVDRSISSPEIFLHSNVIGTYTLLESIRRENPEVRFVHVSTDEVYGDILKGSFTENDRLMPSSPYSATKAASDMLVLGWTRTYNLNASITRCTNNYGPYQFPEKLIPKTIIRASLGLKIPIYGTGKNVRDWLYVEDHVRAIELVLLKGESREIYNISAGEEKTNLEVVKIILRLMGKGEELIELVEDRPGHDLRYSLDSWKITRDLKWRPKYTFDEGIKKTIDWYLKNEWWWKPLVDERILHPTPWKLKW,soluble
4,MPKKTFENLEDSHGKDVNIPVELPKRKREVTPENLPSTSSTAPTQKRKSLGYSGRTEEPKNIHKTFISPFSTSVSPSKQGLRRRKKALPAIEPPVSVEEASPLRFVNIDVFSRRMASESSDHDAMIAKLLSRKFSIPMEGYMLSGRSLGLGGNRRKCALFDPYHEGALILYAPEHLSEHAQLKEDKDRKVHVVADPVVGKILRPHQRDGVKFMWDCVTGINIPEFHGCIMADEMGLGKTLQCISLLWTLLRQSPDACPTVSKSIIVCPSSLVKNWDKEIKKWLGTRLNAMPVDSGKREQIIACLNSFMADSKMRCAIPVLIISYETFRLYANILHSGDVGIVICDEGHRLKNSENLTYQALSGLKCARRVLISGTPIQNDLLEYFSLVNFVNPGLLGTASEFRKKFENAILKGRDADASSEDQKKGEEKTKEMISLVEKCIIRRTSALLTKYLPVKYEHIICCKNSTLQETLYNKLIECEKQNRIVEKDKGATASALSFITHLKKLCNHPYLVYDEFQKPDNRFRNKCLSIFPESFNPKSFDPSFSGKMKVLDYILAVTRKTTDDKFVLVSNYTQTIDQFMELCKLRGYDFVRLDGSMSIKQRSKIVDTFNDPASTIFCFLLSSKAGGCGLNLIGANRLVMFDPDWNPANDDQAMARVWRDGQKKMCFIYRLLATGSIEEKMFQRQTHKKALSSCVVDAGEDVARHFSSEQLRELFKLESTVASDTHEKLKCKRCIQGVESVDPPTNADCASDLSNWFHSQKSARKVADNVLRAVFECGSISFVFHQKSHNVEVKKVQEKVEEVDEDYVPSEAEENDD,soluble
5,MNKCFLKIAIVAGEESGDLLGADLISCLSQQTGCKIDLIGVGGRHLKALGLKSFFDFQDIALIGLGTVLKKLPLLLIHIHNLSKFIAKEQPDCLIIIDSPDFTHRVAKKVHVLAPSIPIIKYIAPTVWAWRPERAKAMRKFVDHVLAVFPFEKKIMQDLGGPPTTYVGHRLLTYPPLLTIQSKKRHQSEKKHVFAKQTSSPTLVILPGSRNLEIRYLMPIFREAVEILIQRIPHLHIILPTLPHFVDEIRAFVQSWKNKVEILVDEDAKWHAFSKADVALAALGTVSLELALAKIPMVLCYKLDRFSKLFIFPKIMLWSAALPNIISDKPIVPEYFNEFLRPGMLARQIEELLYNPLLRQAQLDVFEMVEQKMKTEVPSGVIAAQTIVTLLKKRSGSLKFS,not soluble
6,GHMAIQRRIRRVKTVQMTTNSPIHRSGSVLEPGNWQEYDPFLLLMEDIFERGTFDVHPHRGIETVTYVISGELEHFDSKAGHSTLGPGDVQWMTAGRGVVHKEDPASGSTVHSLQLWVNLPSAYKMTEPRYQNLRSKDMPVRKEEGATIRVFSGSSKGVKAPTKNIVPVTMVEMIVEPGTTVVQDLPGHYNGFLYILEGSGVFGADNIEGKAGQALFFSRHNRGEETELNVTAREKLRLLLYAGEPVNEPVVAYGPFVMNTPEQIREAIRDYQEGRFGR,soluble
7,MIKSALLVLEDGTQFHGRAIGATGSAVGEVVFNTSMTGYQEILTDPSYSRQIVTLTYPHIGNVGTNDADEESSQVHAQGLVIRDLPLIASNFRNTEDLSSYLKRHNIVAIADIDTRKLTRLLREKGAQNGCIIAGDNPDAALALEKARAFPGLNGMDLAKEVTTAEAYSWTQGSWTLTGGLPEAKKEDELPFHVVAYDFGAKRNILRMLVDRGCRLTIVPAQTSAEDVLKMNPDGIFLSNGPGDPAPDDYAITAIQKFLETDIPVFGICLGHQLLALASGAKTVKMKFGHHGGNHPVKDVEKNVVMITAQNHGFAVDEATLPANLRVTHKSLFDGTLQGIHRTDKPAFSFQGHPEASPGPHDAAPLFDHFIELIEQYRKTAK,soluble
8,SPGRSSSNSGSTGFISFSGVESALSSLKNFQACINSGMDTASSVALDLVESQTEVSSEYSMDKAMVEFATLDRQLNHYVKAVQSTINHVKEERPEKIPDLKLLVEKKFLALQSKNSDADFQNNEKFVQFKQQLKELKKQCGLQADREADGTEGVDEDIIVTQSQTNFTCPITKEEMKKPVKNKVCGHTYEEDAIVRMIESRQKRKKKAYCPQIGCSHTDIRKSDLIQDEALRRAIENHNKKRHRHSE,soluble
9,MGSDKIHHHHHHMKKIIIVSCLMSGVLNFGYSITTESIPTCSSFLSKLLSTAKSDTLSKVKLENCTFEEFKNNYDKDKFPVEFRNNQEEKSFYRHLKERDNYAGISNLYDMWKWVRFNRGFLEQQNEKLFHVYDKLNEVGINPESLDSMSYLNLKGINENINALTESINPSVEAIKYLLPDFEKYVAAYEKLAKEGDSLSYSDFKKASGRGATTANIQQIDQRILHQFRKEMHMNTANTAAMSSLNFGNGYGVSVGAAIGGHKGQYSLALGTAYTDYQTQVNVKIALPVKQPKPSNITYGVGFVYNFQ,not soluble
10,MASGDVRIASLVPSITELLFDLGLADQLVARTGFCIHPEPAVRAVAKVGGTKDVKLDRLRALAPTHVVVNIDENRRETVDEIRTFVPHVIVTHPCAPEDNLALYRLLGGIFGRRPQAEALVGQLRGELDAIQAQTWPLEHHHHHH,not soluble
11,MSLKLLAFDTSSTALSVAILEDDRLLADASLTIKKNHSISLMPTIDFLMKSVNLSPQDLDRIVVAEGPGSYTGLRVAVATAKTLAYTLTIDLVGVSSLAALALNSHHEGFIVPIMDARRNHVYVGFYENGRAAKADQYASLNAVLEQLKGRKQVTFVGEVTAFRQEINQTFPEAKVLEVLPSAFKIGQVGQKLTPVDVHAFVPKYLKKVEAEENWLKTHEDSGLSYVKRVEGHHHHHH,not soluble
12,MAFSASIEDYALIGDQQSAALVARDGSIDWLCLPRFDSPACFAALLGDEHNGKWRIAPKGAGPCTRRAYRTDSLVLDSEWDTPEGTLRVTDLMPQRDSAPDLVRIVEGLRGRVTVRSAIRLRFDYGLEHHHHHH,not soluble
13,MSEDELIIIENLKKIYKIKNVEFPALRGINLKIYKGEFLGIAGPSGSGKTTLLDMIGLLDSPTEGKIIIDKKDVTKFDEDKRAIFRRKNIGFVFQSYNLISYLTVLENVELALAAAGYPVSKRKAKAEEILSMIPGMLELKNKKPNELSAGQQQRVAIARALANDPKILIADEPTANLDSKTGEAIVELLRKLNEEKGVTIVMATHDPMMMKYVDRLVYIRDGLIEKEVIQK,soluble
14,MGSDKIHHHHHHMNVHVAVQTQAHRLDSNTAAFARDVLDGLTKPQKELSPKYFYDDTGSELFVEITRLPEYYPTRTELGILRDRAAEIAALIPPDAAIVEFGAGATTKIRLLLAAHQVAAYVPVDISGDFIITQAEALQRDFPQLAVHPLAADFTKPFALPPAVRDLPKVGFFPGSTIGNFEPQEARRFLESARDILGRGARMIIGVDLEKDENVLVPAYDDAAGVTGKFNLNLLIRINRELGADFDLSAFAHRAIYNRDQHRIEMHLVSLRDQSVHLFGERIGFRAGESIHTENSYKYSLERFRALAQQAGWTPARCWTDADAMFSVHAIETNGSRV,not soluble
15,MGSDKIHHHHHHMVNQGVDISVIAPQSITRHLLKGDPLLAVDSEKKIGNRSYHIYRPKYLTLGNAPRWIQNILEWLRYKVILRVITKHNLKPDAIYGHFWQNAFDIRKYCYKNGTPLFVACGEGDTALEDLVNSLSFAEKKRLSNAVTGVISVSSLNKRKCIEYGLSKAEDIVVLPNSVNSSLFSDINPLNRNSLGVFDDDFLIVFTGGFIHRKGASRLAAAIDKIGDKRIKVIFIGKPVPGDDATPHCNGIVHIGALEHDDIPSYLSAADVFCLPTLNEGCSNAIVEAIACGLPIISSNLPFNDDILDSSNALLVNPESVDDIASAIKQLMDNSDLRQKLAEGSKEKAKSLRIEFRAKKIIEFINRQMQK,not soluble
16,MLKKFFLPDEFVKNIFHITPEKLKERNVKGIITDLDNTLVEWDRPNATPRLIEWFEEMKEHGIKVTIVSNNNERRVKLFSEPLGIPFIYKARKPMGKAFNRAVRNMELKKEDCVVIGDQLLTDVLGGNRNGYHTILVVPVASSDGFITRFNRQVERRILSALKRKGHIQWEELEHHHHHH,soluble
